# From patent US20210198368A1 (Novartis, published 2021)
# T1: human CLL-1 (human, UniProt Q5QGZ9 65-265, limits assumed)
# T1 construct: The construct is not described; also called C-type lectin-like molecule-1; MICL
# T1 sequence (looked up): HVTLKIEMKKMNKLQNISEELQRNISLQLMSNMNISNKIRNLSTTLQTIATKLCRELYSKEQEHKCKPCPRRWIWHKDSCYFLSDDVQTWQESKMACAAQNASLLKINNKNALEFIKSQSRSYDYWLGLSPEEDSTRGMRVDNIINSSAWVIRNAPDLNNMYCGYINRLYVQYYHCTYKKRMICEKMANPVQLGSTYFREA
# T2: human CLL-1 Fc (human, UniProt Q5QGZ9 65-265, limits assumed)
# T2 construct: Captured at 120 RU on an anti-Fc CM5 chip for Biacore; not shown: Fc part of the fusion (captured by an anti-Fc / anti-huFc antibody)
# T2 sequence (looked up): T1 sequence (looked up)
# B1: CLL-1-1 (scFv)
# scFv: EVQLQQSGAEVKKPGSSVKVSCKASGGTFSSYAISWVRQAPGQGLEWMGGIIPIFGTANYAQKFQGRVTITADESTSTAYMELSSLRSEDTAVYYCARDLEMATIMGGYWGQGTLVTVSSGGGGSGGGGSGGGGSQSALTQPASVSGSPGQSITISCTGTSSDVGGYNYVSWYQQHPGKAPKLMIYDVSNRPSGVSNRFSGSKSGNTASLTISGLQAEDEADYYCSSYTSSSTLDVVFGGGTKLTVL
# notes: Human scFv from phage display (VH-linker-VL); For Biacore it was made as soluble scFv in HEK293F cells and purified on Ni-NTA beads; a tag is implied but not described; also called 139115
# B2: CLL-1-9 (scFv)
# scFv: QVQLVQSGAEVKEPGASVKVSCKAPANTFSDHVMHWVRQAPGQRFEWMGYIHAANGGTHYSQKFQDRVTITRDTSANTVYMDLSSLRSEDTAVYYCARGGYNSDAFDIWGQGTMVTVSSGGGGSGGGGSGGGGSGGGGSDIVMTQSPSSVSASVGDRVTITCRASQDISSWLAWYQQKPGKAPKLLIYAASSLQSGVPSRFNGSGSGTDFTLTISSLQPEDFATYYCQQSYSTPLTFGGGTKVEIK
# notes: Soluble scFv from HEK293F cells, purified on Ni-NTA; a tag is implied but not described; also called 146259
# B3: CLL-1-13 (scFv)
# scFv: QVQLVQSGAEVKKSGASVKVSCKASGYPFTGYYIQWVRQAPGQGLEWMGWIDPNSGNTGYAQKFQGRVTMTRNTSISTAYMELSSLRSEDTAVYYCASDSYGYYYGMDVWGQGTLVTVSSGGGGSGGGGSGGGGSGGGGSDIQMTQSPSSLSASVGDRVTFTCRASQGISSALAWYQQKPGKPPKLLIYDASSLESGVPSRFSGSGSGTDFTLTISSLQPEDFATYYCQQFNNYPLTFGGGTKVEIK
# notes: Soluble scFv from HEK293F cells, purified on Ni-NTA; a tag is implied but not described; also called 146264
# B4: CLL-1-2 (scFv)
# scFv: EVQLVESGGGVVQPGGSLRLSCAASGFTFDDYAMHWVRQAPGKGLEWVSLISGDGGSTYYADSVKGRFTISRDNSKNTLYLQMNSLRVEDTAVYYCARVFDSYYMDVWGKGTTVTVSSGGGGSGGGGSGSGGSEIVLTQSPLSLPVTPGQPASISCRSSQSLVYTDGNTYLNWFQQRPGQSPRRLIYKVSNRDSGVPDRFSGSGSDTDFTLKISRVEAEDVGIYYCMQGTHWSFTFGQGTRLEIK
# notes: Human scFv from phage display; also called 139116
# B5: CLL-1-10 (scFv)
# scFv: QVQLVQSGGGLVQPGGSLRLSCAASGFTFSSYSMNWVRQAPGKGLEWVSYISSSSSTIYYADSVKGRFTISRDNAKNSLYLQMNSLRAEDTAVYYCARDLSVRAIDAFDIWGQGTMVTVSSGGGGSGGGGSGGGGSGGGGSDIVLTQSPSSLSASVGDRVTITCQASQDISNYLNWYQQKPGKAPKLLIYDASNLETGVPSRFSGSGSGTDFTFTISSLQPEDFATYYCQQAYSTPFTFGPGTKVEIK
# notes: Soluble scFv from HEK293F cells, purified on Ni-NTA; a tag is implied but not described; also called 146261
# How the values were obtained:
# human CLL-1 = molecular target: T1, human CLL-1; assay: ELISA and/or FACS of phage clones after panning on immobilized CLL-1
# human CLL-1 Fc = molecular target: T2, human CLL-1 Fc; assay: SPR (Biacore T200), human CLL-1 Fc captured on an anti-Fc CM5 chip, scFv as analyte, 1:1 binding fit
# Protocol: Next, the affinity for human CLL-1 of a representative number of anti-CLL-1 scFvs was tested by Biacore. Briefly, anti-Fc antibody (Jackson ImmunoReasearch, catalog #109-005-098) was immobilized to a CM5 sensor chip via amine coupling, and human CLL-1 Fc was then captured at a density of 120 RU. ScFv samples were serial diluted 3-fold and injected over the chip at a constant flow rate. Association and dissociation rates of the protein complex were monitored for 270 s and 400 s, respectively. Double referencing was performed against an anti-huFc coated flow cell and a buffer blank and the data was fit using a 1:1 Langmuir or steady state affinity model with the Biacore T200 evaluation software. Binding of clones CLL-1-6, CLL-1-8, CLL-1-9, CLL-1-10, and CLL1-13 to human CLL-1 was confirmed.
Binder,binding result (human CLL-1),Kd (human CLL-1 Fc),koff (human CLL-1 Fc),kon (human CLL-1 Fc)
B1,binds,,,
B2,,9.1 nM,0.00128 s⁻¹,141000 M⁻¹ s⁻¹
B3,,46.1 nM,0.00119 s⁻¹,25700 M⁻¹ s⁻¹
B4,binds,,,
B5,,15 nM,0.00214 s⁻¹,142000 M⁻¹ s⁻¹
